Measurements from the supplement of paper PMC10567573.

B1: RHOBTB3 (parent)
chain: GGADIIVIKYNVNDKFSFHEVKDN
B2: SNAP91 (parent)
chain: FSTDAFSSPPQGASPVPESSLTAD

Variants of: B1
Assay: protein stability index of a GFP-peptide fusion (GPS, HEK-293T) (PSI 1-6); higher = more stable
Conditions: c terminus: a fixed tail appended
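Also: lentivirally expressed fusions sorted by FACS into six bins by GFP to DsRed ratio, PSI derived from sequencing read proportions per bin multiplied by bin number.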

Protein stability index: each site, then its substitutions
D23: G 2.34, N 2.44, P 3.16, M 2.02, I 2.36, L 3.42, T 4.21, V 2.83, Y 2.28, C 2.08, E 2.68, A 2.71, W 3.21, H 3.28, Q 2.76, S 2.21
V21: I 2.23, H 2.15, L 2.72, N 1.66, K 2.59, Y 2.98, T 1.46, S 2.5, Q 2.29, C 1.96, A 3.15, M 3.97, R 2.42, G 3.4, W 2.15, D 1.3, P 2.01, E 1.37, F 3.01
F18: I 1.95, W 2.08, Y 2.72, G 2.03, K 1.78, H 1.76, D 2.26, E 1.76, C 3.13, M 1.87, N 1.39, L 2.53, T 2.63, Q 1.99, S 1.86, A 3.47, P 1.95, V 2.49, R 4.04
S17: I 2.65, Y 1.63, N 3.14, K 3.18, D 2.64, E 2.94, H 2.69, G 2.54, Q 2.36, A 3.54, T 2.25, R 2.35, P 2.54, V 1.73, C 2.27, F 3.05
F16: Y 2.62, T 2.33, N 1.84, I 2.88, R 1.6, C 2.2, V 1.98, D 2.07, S 3.13, Q 1.85, K 1.73, A 2.24, G 2.74, P 2.55, W 4.02, H 1.53, L 1.63, M 2.04, E 2.12
Y10: N 2.03, D 3.68, E 2.29, T 1.92, C 3.4, L 3.82, K 1.82, H 1.92, G 2.19, P 2.77, M 1.94, W 3.26, R 2.53, V 3.23, Q 1.62, S 1.88, I 4.15, A 1.27, F 2.26
N13: E 2.71, D 1.88, L 2.87, I 2.93, P 3.19, H 2.57, F 3.47, K 2.92, W 1.96, R 1.99, Q 3.3, A 3.68, T 1.57, V 3.83, Y 1.67
H19: F 3.33, A 2.27, Q 3.57, T 2.52, N 3.79, I 1.54, Y 3.29, M 3.71, C 3.17, R 2.82, G 2.55, S 2.72, V 2.72, D 1.95, E 2.5, K 2.44, P 2.55
K9: F 3.82, L 2.84, R 2.33, C 2.65, I 4.01, A 1.67, D 1.66, Y 2.89, W 3.44, M 3.15, T 2.97, G 3.78, P 2.07, H 3.31
K15: N 3.83, C 4.37, D 4.13, V 3.95, G 4.47, F 2.8, E 2.03, W 3.18, Y 2.75, Q 2.13, S 2.73, L 3.48, H 2.87, P 2.59
N24: H 2.14, C 2.34, R 1.86, I 2.21, L 3.07, M 3.25, E 1.44, G 3, K 2.73, D 1.94, F 3.49, S 2.71, A 2.09, T 4.04, V 3.86
E20: P 1.33, H 1.9, I 2.61, S 2.76, R 2.93, D 3.45, T 1.52, V 2.1, C 3.82, L 2.02, M 2.91, F 2.75, N 3.38, W 2.67, K 1.88, A 1.55, Y 2.26, G 2.78
K22: S 2.52, M 2.35, Q 2.01, N 2.1, W 2.75, H 3.97, V 3.25, E 3.13, R 2.61, T 2.58, L 2.43, A 2.89, Y 3.11, D 2.36, C 2.88, F 4.16, P 3.07, G 2.76
N11: D 2.29, K 4.82, V 3.99, A 2.36, F 1.97, Q 3.46, E 1.76, W 3.58, S 2.23, T 2.43, H 3.1, R 2.45, I 2.24, G 3.11, M 3.72, P 3.2
I8: W 2.04, S 3.71, Y 1.59, V 1.81, R 3.17, Q 3.48, T 2.95
V12: N 2.66, W 3.56, L 2.24, T 2.73, D 1.95, I 3.31, R 2.8, Y 2.38, A 2.83, H 1.92, P 2.13, E 1.72, Q 2.3, K 1.82, M 2.67, G 2.7, S 1.9
D14: A 3.34, N 3.12, M 1.62, W 2.63, T 2.67, Y 3.38, S 3.4, K 3.14, R 2.36, G 1.72, H 2.94, V 4.54, E 2.8, F 3.63, I 4.53

Variants of: B2
Assay: as above
Conditions: c terminus: a fixed tail appended

Protein stability index, by site and new letter:
D4: A 3.25, E 4.2, C 2.76
S2: Y 4.7, I 1.64, F 3.96, E 5.52, D 5.7, Q 2.58, G 2.8, R 5.05, K 5.08, L 3.34, N 5.09, W 3.48, M 3.32, C 2.46, H 2.15, T 1.67, A 2.09, P 3, V 3.15
F1: N 5.74, C 5.07, Q 5.64, K 5.34, P 5.68, T 5.55, E 5.47, W 5.19, D 5.72, I 5.36, V 5.52, R 5.39, H 5.37, Y 3.31, M 5.44, L 5.57, A 5.73, S 5.65, G 5.54
T3: W 4.38, N 4.84, F 4.6, Q 5.5, G 4.47, L 4.93, H 5.4, P 4.49, M 3.37, C 4.3, I 4.4, R 4.91, K 4.93, A 5.12, E 5.08, D 5.08, V 4.56, Y 4.46, S 2.95
